Residue numbers refer to the chain shown, from its start. In names and notes the source's numbering stands.
B1: 111 7g11 Alb22 (protein)
chain: TYNGCSSSEQSALAAAASAAQSYVAESLSYLQTHTAATPRYTTWFGSYISSRHSTVLQHYTDMNSNDFSSYSFDCTCTAAGTFAYVYPNRFGTVYLCGAFWQAPTTGTDSQAGTLVHESSHFTRNGGTDDYAYGQAAAQSLATMNPDQAVMNADNHEYFSENNPAQSAAAGGGGSGDLGRRLLEAARAGQDDEVRILMANGADVNAADYFSHTPLHLAARNGHLEIVEVLLQAGADVNASDFAGKTPLHLAANDGHLEIVEVLLQHGADVNAQDIFGRTPADIAADAGHEDIAEVLQRLNGGGGSGGGGSGGGGSGGGGSGGGGSGGGGSGGGSSGLDRRLLEAARAGQDDEVRILMANGADVNATDEFDSTPLHLAARHGHLEIVEVLLQYGADVNAADFIGDTPLHLAAYRGHLEIVEVLLQYGVDVNADDHGDTPLHLAASTGHLEIVEVLLQHGADVNAQDIFGRTAFDISIDNGNEDLAEILQRAA
B2: 111 7g11 Alb22 NQ (protein)
chain: ATYNGCSSSEQSALAAAASAAQSYVAESLSYLQTHTAATPRYTTWFGSYISSRHSTVLQHYTDMNSNDFSSYSFDCTCTAAGTFAYVYPNRFGTVYLCGAFWQAPTTGTDSQAGTLVHESSHFTRNGGTDDYAYGQAAAQSLATMNPDQAVMNANNHQYFSENNPAQSAAAGGGGSGDLGRRLLEAARAGQDDEVRILMANGADVNAADYFSHTPLHLAARNGHLEIVEVLLQAGADVNASDFAGKTPLHLAANDGHLEIVEVLLQHGADVNAQDIFGRTPADIAADAGHEDIAEVLQRLNGGGGSGGGGSGGGGSGGGGSGGGGSGGGGSGGGSSGLDRRLLEAARAGQDDEVRILMANGADVNATDEFDSTPLHLAARHGHLEIVEVLLQYGADVNAADFIGDTPLHLAAYRGHLEIVEVLLQYGVDVNADDHGDTPLHLAASTGHLEIVEVLLQHGADVNAQDIFGRTAFDISIDNGNEDLAEILQRAA
B3: IL-13 DARPin ΔK (protein)
chain: ALDRRLLEAARAGQDDEVRILMANGADVNARDSYGSTPLHLAAREGHLEIVEVLLQYGADVNAADFIGDTPLHLAAYRGHLEIVEVLLQYGADVNASDITGETPLHLAAQIGHLEIVEVLLQHGADVNAQDIFGRTAFDISIDNGNEDLAEILQRAA
B4: SH111 wt ΔK (protein)
chain: TYNGCSSSEQSALAAAASAAQSYVAESLSYLQTHTAATPRYTTWFGSYISSRHSTVLQHYTDMNSNDFSSYSFDCTCTAAGTFAYVYPNRFGTVYLCGAFWQAPTTGTDSQAGTLVHESSHFTRNGGTDDYAYGQAAAQSLATMNPDQAVMNADNHEYFSENNPAQSAAAGGGGSGDLGRRLLEAARAGQDDEVRILMANGADVNAADYFSHTPLHLAARNGHLEIVEVLLQYGADVNASDFAGRTPLHLAANDGHLEIVEVLLQHGADVNAQDIFGRTPADIAADNGHEDIAEVLQRAAGGGGSGGGGSGGGGSGGGGSGGGGSGGGGSGGGSSALDRRLLEAARAGQDDEVRILMANGADVNARDSYGSTPLHLAAREGHLEIVEVLLQYGADVNAADFIGDTPLHLAAYRGHLEIVEVLLQYGADVNASDITGETPLHLAAQIGHLEIVEVLLQHGADVNAQDIFGRTAFDISIDNGNEDLAEILQRAA
B5: SH111 NQ ΔK (protein)
chain: B4 chain with D154N, E157Q
B6: SH111 E157Q ΔK (protein)
chain: B4 chain with E157Q
B7: SH111 D154N ΔK (protein)
chain: SSYSFDCTCTAAGTFAYVYPNRFGTVYLCGAFWQAPTTGTDSQAGTLVHESSHFTRNGGTDDYAYGQAAAQSLATMNPDQAVMNANNHEYFSENNPAQSAAAGGGGSGDLGRRLLEAARAGQDDEVRILMANGADVNAADYFSHTPLHLAARNGHLEIVEVLLQYGADVNASDFAGRTPLHLAANDGHLEIVEVLLQHGADVNAQDIFGRTPADIAADNGHEDIAEVLQRAAGGGGSGGGGSGGGGSGGGGSGGGGSGGGGSGGGSSALDRRLLEAARAGQDDEVRILMANGADVNARDSYGSTPLHLAAREGHLEIVEVLLQYGADVNAADFIGDTPLHLAAYRGHLEIVEVLLQYGADVNASDITGETPLHLAAQIGHLEIVEVLLQHGADVNAQDIFGRTAFDISIDNGNEDLAEILQRAA

Target: T1, FLAG-tagged human IL-13 (human, UniProt P35225 35-146)
T1 sequence (P35225 35-146): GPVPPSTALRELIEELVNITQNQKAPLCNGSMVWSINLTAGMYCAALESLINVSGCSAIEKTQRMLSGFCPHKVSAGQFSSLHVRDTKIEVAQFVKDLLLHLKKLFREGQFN
Experiment: competition ELISA; 24 h incubation

EC50 | Binder
0.0036 nM | B1
0.0069 nM | B2

Target: T1, FLAG-tagged human IL-13
Experiment: competition ELISA; 24 h incubation
Remark: another data set of the same source

EC50 | Binder
21.2 nM | B3
0.002 nM | B4
0.027 nM | B5
0.003 nM | B6
0.015 nM | B7

Target: T1, FLAG-tagged human IL-13
Experiment: competition ELISA; 1 h incubation

EC50 | Binder
0.019 nM | B1
0.075 nM | B2

Target: T1, FLAG-tagged human IL-13
Experiment: competition ELISA; 1 h incubation
Remark: another data set of the same source

EC50 | Binder
13.7 nM | B3
0.065 nM | B4
0.705 nM | B5
0.08 nM | B6
0.802 nM | B7
